From article PMC4618692, “Crystal Structure and Identification of Two Key Amino Acids Involved in AI-2 Production and Biofilm Formation in Streptococcus suis LuxS” (PLoS ONE, 2015)

Molecular target: the molecule itself
Assay: SEC; size exclusion chromatography of purified LuxS (Superdex 200 named in the purification); data not shown

B1: S-ribosylhomocysteinase (LuxS) from Streptococcus suis strain HA9801 (enzyme, UniProt A4VTE8 1-160, looked up)
chain: MKKEVTVESFELDHTIVKAPYIRLISEEVGPKGDIITNFDIRLIQPNENAMDTAGLHTIEHLLAKLIRQRIDGLIDCSPFGCRTGFHMIMWGKQDSEKIAQVIKSSLEEIAEGITWEDVPGTTIESCGNYKDHSLHSAKEWAKLILSQGISTDAFERKPI
notes: also called S. suis LuxS; SS LuxS protein; source: E. coli BL21 (DE3), pET28-luxS, purified (HisTrap column, Superdex 200 size-exclusion chromatography)
  stoichiometry N: 2
